In US20240218057A1:

How the values were obtained:
Test in all cases: cell-based or functional assay
[1] = target: SARS-COV-2 spike protein A475V on pseudotyped virus (SARS-CoV-2) (UniProt P0DTC2)
[2] = target: SARS-COV-2 spike protein E484K (R683G) on pseudotyped virus (SARS-CoV-2) (UniProt P0DTC2)
[3] = target: SARS-COV-2 spike protein K417N on pseudotyped virus (SARS-CoV-2) (UniProt P0DTC2)
[4] = target: SARS-COV-2 spike protein N440K on pseudotyped virus (SARS-CoV-2) (UniProt P0DTC2)
[5] = target: SARS-COV-2 spike protein N501Y on pseudotyped virus (SARS-CoV-2) (UniProt P0DTC2)
[6] = target: SARS-COV-2 spike protein R346S on pseudotyped virus (SARS-CoV-2) (UniProt P0DTC2)
[7] = target: SARS-COV-2 spike protein R683G on pseudotyped virus (SARS-CoV-2) (UniProt P0DTC2)
[8] = target: SARS-CoV-2 spike protein A475V (pseudovirus) (SARS-CoV-2) (UniProt P0DTC2)
[9] = target: SARS-CoV-2 spike protein E484K (R683G) (pseudovirus) (SARS-CoV-2) (UniProt P0DTC2)
[10] = target: SARS-CoV-2 spike protein K417N (pseudovirus) (SARS-CoV-2) (UniProt P0DTC2)
[11] = target: SARS-CoV-2 spike protein K417N/E484K/N501Y (R683G) (pseudovirus) (SARS-CoV-2) (UniProt P0DTC2)
[12] = target: SARS-CoV-2 spike protein N440K (pseudovirus) (SARS-CoV-2) (UniProt P0DTC2)
[13] = target: SARS-CoV-2 spike protein N501Y (pseudovirus) (SARS-CoV-2) (UniProt P0DTC2)
[14] = target: SARS-CoV-2 spike protein Q493R (pseudovirus) (SARS-CoV-2) (UniProt P0DTC2)
[15] = target: SARS-CoV-2 spike protein R346S (pseudovirus) (SARS-CoV-2) (UniProt P0DTC2)
[16] = target: SARS-CoV-2 spike protein R683G (pseudovirus) (SARS-CoV-2) (UniProt P0DTC2)

Substance | neutralization IC50 [1] | neutralization IC90 [1] | neutralization IC50 [2] | neutralization IC90 [2] | neutralization IC50 [3] | neutralization IC90 [3] | neutralization IC50 [4] | neutralization IC90 [4] | neutralization IC50 [5] | neutralization IC90 [5] | neutralization IC50 [6] | neutralization IC90 [6] | neutralization IC50 [7] | neutralization IC90 [7] | other results
C144 (antibody) | 0.00319 µg/mL | 0.0162 µg/mL | > 1 µg/mL | > 1 µg/mL | 0.00184 µg/mL | 0.0115 µg/mL | 0.0024 µg/mL | 0.0135 µg/mL | 0.00305 µg/mL | 0.0189 µg/mL | 0.00341 µg/mL | 0.0167 µg/mL | 0.00123 µg/mL | 0.00666 µg/mL | IC50 neutralization [8]: 0.0032 µg/mL; IC90 neutralization [8]: 0.0162 µg/mL; IC50 neutralization [9]: > 1 µg/mL; IC90 neutralization [9]: > 1 µg/mL; IC50 neutralization [10]: 0.0018 µg/mL; IC90 neutralization [10]: 0.0115 µg/mL; IC50 neutralization [11]: > 1 µg/mL; IC90 neutralization [11]: > 1 µg/mL; IC50 neutralization [12]: 0.0024 µg/mL; IC90 neutralization [12]: 0.0135 µg/mL; IC50 neutralization [13]: 0.003 µg/mL; IC90 neutralization [13]: 0.0189 µg/mL; IC50 neutralization [14]: > 1 µg/mL; IC90 neutralization [14]: > 1 µg/mL; IC50 neutralization [15]: 0.0034 µg/mL; IC90 neutralization [15]: 0.0167 µg/mL; IC50 neutralization [16]: 0.0012 µg/mL; IC90 neutralization [16]: 0.0067 µg/mL
C135 (antibody) | 0.00461 µg/mL | 0.0272 µg/mL | 0.00199 µg/mL | 0.02 µg/mL | 0.00348 µg/mL | 0.0147 µg/mL | > 1 µg/mL | > 1 µg/mL | 0.0129 µg/mL | 0.141 µg/mL | > 1 µg/mL | > 1 µg/mL | 0.00271 µg/mL | 0.0228 µg/mL | 
C121 (antibody) | 0.00253 µg/mL | 0.0183 µg/mL | > 1 µg/mL | > 1 µg/mL | 0.0031 µg/mL | 0.0163 µg/mL | 0.0035 µg/mL | 0.0182 µg/mL | 0.00375 µg/mL | 0.0189 µg/mL | 0.00363 µg/mL | 0.0156 µg/mL | 0.00167 µg/mL | 0.0108 µg/mL | 
